Source: paper PMC3260263, “Structural Characterization of a Novel Chlamydia pneumoniae Type III Secretion-Associated Protein, Cpn0803” (PLoS ONE, 2012)
Several values for one entry are separate records, joined by “and”; a condition that tells them apart may be missing. Equal values may be shown once.

Tests used:
[1] = target: the molecule itself; experiment: SEC; Superdex S200 10/300 GL, 20 mM Tris pH 7, 100 mM KCl, 5 mg/mL protein; column standardized with LMW and HMW standards; peak fractions checked by anti-His Western blot
[2] = target: GST-CdsF (Chlamydia pneumoniae CWL029); experiment: ELISA; glutathione plate assay: GST fusion captured from lysate on glutathione coated plates, bacterial lysate over-expressing the His-tagged protein added, 4°C 2 hours; washed with 500 mM NaCl, 0.1% Triton X-100, 50 mM TRIS-HCl pH 7.5; anti-6xHis antibody, HRP, OPD, absorbance at 450 nm; positive if two standard deviations above GST alone
[3] = target: GST-CdsN (Chlamydia pneumoniae CWL029); experiment: as above
[4] = target: GST-CdsQ (Chlamydia pneumoniae CWL029); experiment: as above

B1: His-Cpn0803 (natural protein)
chain: MAAKTKTLELEDNVFLLLEGNLKRIFATPIGYTTFREFQNVVFNCANGQQEIANFFFEMLINGKLTQELAPQQKQAAHSLIAEFMMPIRVAKDIHERGEFINFITSDMLTQQERCIFLNRLARVDGQEFLLMTDVQNTCHLIRHLLARLLEAQKNPVGEKNLQEIQEEITSLKNHFDELTKALQ
notes: Cpn0803 of Chlamydia pneumoniae CWL029 (ortholog of C. trachomatis CT584), 184 amino acids; Hexamer and dimer in solution by gel filtration; a SeMet derivative was used for phasing only; also called recombinant His-Cpn0803; full-length Cpn0803; source: E. coli, over-expressed, in lysate (glutathione plate assay, GST pull-down); E. coli, purified on a column eluted with 300 mM imidazole …
stoichiometry N [1]: 6 and 2
absorbance (450 nm) (absorbance units) [2]: 0.36
absorbance (450 nm) (absorbance units) [3]: 0.38
absorbance (450 nm) (absorbance units) [4]: 0.41
